Assay: soluble on expression in E. coli; label from the status in PepcDB or PDB records

Sequence: MGHHHHHHSHIGSFPLPKGITREWVERNLHTKEYEEMVQRAFLMKAKVLDVPTYPQFRDMIEMFMQPIKANQVEPYLIDERKAVIPELEYVEKMSVEAVRVCITGPFELYYREFGGVIYEDILLNLAESVRRFVENAAKHENVVCISIDEPSLGIAPDLQPDEELLQKALDYKVKQDVQIHLHEPLYYEKILETSVDVIGIECAKKPENMDFIDAEAVASAEKKLRIGVARSDIDGIIAEFNALHGVNAWGNEELISLAIDEIEPVEKIAERISKAKERFGDLLAYIGPDCGLFSFPSQELALQLLENVRKAVRE
- soluble on expression in E. coli: not soluble

Sequence: MKVGGIEDRQLEALKRAALKACELSYSPYSHFRVGCSILTNNDVIFTGANVENASYSNCICAERSAMIQVLMAGHRSGWKCMVICGDSEDQCVSPCGVCRQFINEFVVKDFPIVMLNSTGSRSKVMTMGELLPMAFGPSHLN
- soluble on expression in E. coli: soluble

Sequence: MKRLLLTLTFPLFFVGCASQNPTHMAFSPQVPDISQQTSRPVQISLDTIDSRNAEYVARFMEEGTKTRLVGPSEPPKLLLDEVFRNGFTQAGYQIDPSATNSIQVQLEELQMDVTKKTFGYEAKHSVRIAVQARNSSQELVKRYKAKGVLKGPLTPDFATLEMDMNKLLGQLTGEILNDPELNQFLQK
- soluble on expression in E. coli: soluble

Sequence: MNMNKETHICALCERKVPKITEHHLIPREKGGRFDETTWLCVPCHKQVHALYSNYELAVRLNSLPRLKDDEKIKRYLKFIKKQPGDANVTIKKSKAIRKKGRYLEHHHHHH
- soluble on expression in E. coli: not soluble

Sequence: MASVALALWERVLANVVPRQSIAVIGAGVSGLSAAWLLSHRHDVTLYEADNRLGGHANTIIAEGVAVDTGFIVYNEPNYPNLTALFRHIGVETTETDMSFGVSLDGGALEYSSTKLLAQKRNVANPRFIKMLLDVVRFYREGRNIPADLEQGGLCRLDDYLRRQGFGRAFQEDHLLPQAAAIWSASMRDIREFPAAALLRFFDNHGLMLPIDKRPIWRTVVGGSARYVEKLAAGVSGPILTGRPVKAIHRGPDGVRIEDATGETRAFDHVVIGAHADQALSMLAAPSAEERELLGAFRYSRNRAVLHSDPALMPRRRGAWASWNHVGRRGEDGEGGVTYWMNILQPLGVERPYFLSLNPMQDPAGLMHDQVYEHPLFDGPAMLAQRRLWSLQGRRRTWFCGAYFGSGFHEDGLQAGLAVAEQLGGVRRPWLVPNPSGRIVLDVADQAADRELVALEHHHHHH
- soluble on expression in E. coli: not soluble

Sequence: MGSQVQKSDEITFSDYLGLMTCVYEWADSYDSKDWDRLRKVIAPTLRIDYRSFLDKLWEAMPAEEFVGMVSSKQVLGDPTLRTQHFIGGTRWEKVSEDEVIGYHQLRVPHQRYKDTTMKEVTMKGHAHSANLHWYKKIDGVWKFAGLKPDIRWGEFDFDRIAEDGRETFGDK
- soluble on expression in E. coli: soluble

Sequence: MGSDKIHHHHHHMGSTFMGIETGRRALTTNQWALQSTGNNIANAGTAGFSRQRLVMATTEQLSMAIGTGKMGQIGTGVRGEILERVRDVMLDKQYRDEATKTAYYGTKEAAFGRMEDIINEPSDTGLAKAFDGFWESLQTLSTNPQDSGARSVVRQKAETLTQTFNYMSKSLSQVKEDLKSEIDVSTKKVNDLFKKIHNINAEIHTVEPLGVLPNALYDERDRYMDELAQYVDFEKVSVDAEAITQGKLGNATKTAEGRIDILVKLPNGNKLRAVDSDVAQAGILSFTTNDKGLYTGFETNSQTISFDAAGGGFANGRIAGLLEMYGQIKNGQPTGEFVKMQSNLDEMATTFATAFNAAHAANFKKDKTNGTDQFFVATSGSISAATIAVGQDIKGSLDNIATSTDGNIGDSAGALKLAQMKTTSLLFATSVTTTTIGSFYQNVIGDMGVATDQVGRLGQSSAVLMDSAEQRRMSVSAVSIDEEMTMMIQYQHAYNAAARNITTVDEMLDKIINGMGIVGR
- soluble on expression in E. coli: not soluble

Sequence: MGSDKIHHHHHHMKLICEKELCTGCGLCAARCPKHSISLVAEELGHLYPSVDQKKCIDCGLCQKACPSLHDTVCLYPSVAYAAWSKDEEDYRSSTSGGMASVLTHYFLANVGIVYGCTVIPGIEIKHIRIDNLKDAYKLKGSKYVQSSIVDVLSQIRQDVKDGTNVLFIGTPCQVTAVKRMYEEQPDNLFLVDLICHGVPSNKWLVDYIANTLKIKADKVSSIGFRLFEAFSLCVYNDDRLIYKSGDLWTHRYEDLYYNTFIDGFTYRDSCFNCHYAKPERVSDITIGDFWGLGNETDDNYIPKHPYGISCVLPLTEKGKRLISIVKDKLNIYERPVTEAINGNDQLRFPKKKNLRIKFFRRIHKYIGVDAAYKLCVCDKIVKYKIRKIIR
- soluble on expression in E. coli: not soluble

Sequence: MHHHHHHSSGVDLGTENLYFQSNAMTIMLTPMQTEEFRSYLTYTTKHYAEEKVKAGTWLPEDAQLLSKQVFTDLLPRGLETPHHHLWSLKLNEKDIVGWLWIHAEPEHPQQEAFIYDFGLYEPYRGKGYAKQALAALDQAARSMGIRKLSLHVFAHNQTARKLYEQTGFQETDVVMSKKL
- soluble on expression in E. coli: soluble

Sequence: MSLKARSPYSPAEEDALFMDLPTGPRGQQAQPQRAEKNGMLPASYGPGEQNGTGGYQRAFPPRTNPEKHSQRKSNLAQVEHWARAQKGDSRSLPLDQTLPRQGPGQSLSFPENYQTLPKSTRHPSGGSSPPPRNLPSDYKYAQDRASHLKMSSEERRAHRDGTVWQLYEWQQRQQFRHGSPTAPICLGSPEFTDQGRSRSMLEVPRSISVPPSPSDIPPPGPPRVFPPRRPHTPAERVTVKPPDQRRSVDISLGDSPRRARGHAVKNSSHVDRRSMPSMGYMTHTVSAPSLHGKSADDTYLQLKKDLEYLDLKMTGRDLLKDRSLKPVKIAESDTDVKLSIFCEQDRVLQDLEDKIRALKENKDQLESVLEVLHRQMEQYRDQPQHLEKIAYQQKLLQEDLVHIRAELSRESTEMENAWNEYLKLENDVEQLKQTLQEQHRRAFFFQEKSQIQKDLWRIEDVTAGLSANKENFRILVESVKNPERKTVPLFPHEGHHHHHH
- soluble on expression in E. coli: not soluble

Sequence: MKVILLITIFLSFYSSAETIVVEDTLFYEVAPTSKDDLLETLNSSSPIREDGNVFHGYTKYEINWRFWWKSNNNQCAFTKVETTLKLKYTMPQLTSSKSDVNVVWSNWYPNLEKHEKGHGKLAKDTAFKIEKDLLSIGPKANCNLLEKAGNKLAYKLMATLKKANKQYDIKTNHGETQNAWLYLHL
- soluble on expression in E. coli: not soluble

Sequence: MGSDKIHHHHHHMIFVGCSGWSYEEWNGVFYPKSKINKLKFYSTMFNTVEVNSTFYREINNDIINRWIETVRGKNFIFSIKVPQNITHKAILEKDSNSKSLYETFIDKTVRPIRNARMLGAVLVQLPPSFNSNLQTELLDTICCENEYRTAVEVRNKDLYSNEELRKELEKRGIAIVDVDSTEHPLSNLNSGLKWSYVRLHGRAQLGWKSQNPYDYRYSEQEISDLSSKIMAKNYDEIFVYFNNHPRGSAPINALKMASCLGISNNWFF
- soluble on expression in E. coli: not soluble

Sequence: MLPSKEELLALLSKECELYASIPDSEQQKKRNKKHFINGLMTACRVVGISFEELNTIIEQMPKKPIFKDLDEQLSVPTYVRNRVDIKL
- soluble on expression in E. coli: not soluble

Sequence: MTRSEKTRHFGNQNYEKLRKICIKKKQPFVDTLFPPTNQSLFLEQRQSSDIVWKRPGELHPDPHLFVEGASPNDVTQGILGNCWFVSACSALTHNFKLLAQVIPDADDQEWSTKHAYAGIFRFRFWRFGKWVEVVIDDLLPTRDGKLLFARSKTPNEFWSALLEKAFAKLYGCYENLVGGHLSDALQDVSGGVAETLHVRKFLKDDPNDTELKLFNDLKTAFDKGALVVAAIAARTKEEIEESLDCGLVKGHAYAVSAVCTIDVTNPNERSFTSFIMGSKRKQNLIRLQNPWGEKEWNGAWSDDSPEWQNVSASQLSTMGVQPANSDSDDGDFWMPWESFVHYFTDISLCQLFNTSVFSFSRSYDEQIVFSEWTTNGKKSGAPDDRAGGCHNFKATFCNNPQYIFDIPSPNCSVMFALIQNDPSEGLKKREPFVTIGMHVMKVENNRQYRVHTAMHPIAISDYASGRSVYLHLQSLPRGRYLLIPTTFAPKEQTLFMLRVYSDEHIHFSPLTKHAPKLGLLKCKSAQSVTRLTIHGVDFNSASTGTHNVYAILKDSRKSFRTKTLSGVKSIQWDEQFLFHKSKNRQQYKIEVWEDRKMARDHLLAQSVIIALIDNENRDTTLQLTDPRGTVIGTVSVTVSAFDDPMYL
- soluble on expression in E. coli: not soluble

Sequence: MKKLMITQEAGVATVLIKNPPVNILTIDLINELNAFILSLKDDRETKVVVFKSFHEAFFIAHLDLNVINGTSGGQAASIEFNHMIANIKAMKQLSIAVVDGVARGGGNEFVMACDLAYGTENSAFAQPELYINIPTGGQGAVQFARRLGKGKALQALLTGADFTAQQAETLNIITQFVLKAELDVFLAQLLSVIVGWEIRDIVMYKEIIAASIKDEAVGTELELRYFLERAREEKTQTIIAAFLKH
- soluble on expression in E. coli: soluble

Sequence: MGSDKIHHHHHHADILNCILPAEMLTGTDIDYNRPYDKSLNAYPIYIEVNNGTDLTRLAPTFELTEGASIEPANGSTQNFTNPVRYTVTSEDKNWHRTYAINIHYPETKSIPTVFNFENVKTVPYNKNEYYVLYEAASGYSTLTWSSGNQGFALTGSGYTPNDFPTSISPNGRTGNCLQLITRKTGSLGTLVGMPIAAGNLFIGSFDIGSAMSDALSATKFGTTFYYEPIKLVGYYKYKAGPEFYENGESTNRKDVFNIYALFYEKTKDVQMLDGHIAKNNYEHENMVAAAVITDTHETSEWTRFELDFNYEHYGKTIDPQKLANGGYNVSIVLSASKDGDVFQGAPGSTLLIDDLELVCKQPLR
- soluble on expression in E. coli: not soluble

Sequence: MLEFVMREWKKSRKLLGQRLFNKLMKMTFYGHFVAGEDQESIQPLLRHYRAFGVSAILDYGVEEDLSPEEAEHKEMESCTSAAERDGSGTNKRDKQYQAHRAFGDRRNGVISARTYFYANEAKCDSHMETFLRCIEASGRVSDDGFIAIKLTALGRPQFLLQFSEVLAKWRCFFHQMAVEQGQAGLAAMDTKLEVAVLQESVAKLGIASRAEIEDWFTAETLGVSGTMDLLDWSSLIDSRTKLSKHLVVPNAQTGQLEPLLSRFTEEEELQMTRMLQRMDVLAKKATEMGVRLMVDAEQTYFQPAISRLTLEMQRKFNVEKPLIFNTYQCYLKDAYDNVTLDVELARREGWCFGAKLVRGAYLAQERARAAEIGYEDPINPTYEATNAMYHRCLDYVLEELKHNAKAKVMVASHNEDTVRFALRRMEELGLHPADHQVYFGQLLGMCDQISFPLGQAGYPVYKYVPYGPVMEVLPYLSRRALENSSLMKGTHRERQLLWLELLRRLRTGNLFHRPA
- soluble on expression in E. coli: soluble

Sequence: MAASLRSFLEQLKRQNSLYLVKKPVNPRFELGALLKKTKGTVPMFFQNIEGYDVPAVGGIVGTRENFAQALRINKSELLAKITEAITNPGETRLLPSGPVQENVLTKGFDIGKMFPIPTFHEKDSGAFITAGIVVAKDPIYGRRFTSIRRMQLNGPNNLSILIESPGLIEQYYEFERRGQAMEVAIVLGVHPAITLSSQLPTQTFGLDKYNVASRLIGEPLPVVKCKTIDLEVPADAEIVLEGRMLPYVRHPEGPFGELMGYYGPQTMQPVVEVTAVTFRNNPIFQVIFPSSYEHKLPNALMREVVLFNHVRHVVPTVQDVHLTMAGGGRCHAIISIKKTAEGQGKQAIFAALASNKDVKHVVVVNDDVDIFDPEDVEWAIATRVQADQDIIIIPGAQGTPLEPSHNLRGVSAKMGIDATYPLAEEERFARTQIPGYDQIRLEDYLTLDW
- soluble on expression in E. coli: soluble

Sequence: MRDFGEILAENRKKKGYSQSDLVNLLSQEGIQVTTKALSKWENNAREPALHVFLTLCQLLDIEDIYESFFGENPYNIMSGLNEEGRNKLIEFADILKASKKFSPLSAKIIPFHHPVEITWEPVSAGTGNYLEDSVKETYDVGHLAPEQTDFGVRISGDSMEPLYHTDDVAWIQKKDSLANGEIGIFYLNGNTYIKELHDEPDGVYLISLNQKYRPIQVLESDSFKIFGKVIGKCKGAEIPGFHLEHHHHHH
- soluble on expression in E. coli: soluble

Sequence: MDAQSYMPVPPGVGMEENFFSLDDILLSHERLPCRTESAFPRLGFLEKSSDSRDIPEGTKMEMPLWLAKGLYERKRRVLSVELPKVYREGWRTVFGADPTVVDLYKMGPYYYGLGSQMLHFESPENPEIANTILQTFIGRFRRTMDSSQNAYNEDTSALVERLDYLERSLFKAGQSGLNNFQLWEKGRSSHLTASSLVINYRKRKMTDLQA
- soluble on expression in E. coli: not soluble

Source: the DeepSol protein solubility set
